According to article PMC4728063:

Biological target: T1, RS1 (retinoschisin), human, recombinant, secreted from Sf21 insect cells (human), O15537
T1 chain: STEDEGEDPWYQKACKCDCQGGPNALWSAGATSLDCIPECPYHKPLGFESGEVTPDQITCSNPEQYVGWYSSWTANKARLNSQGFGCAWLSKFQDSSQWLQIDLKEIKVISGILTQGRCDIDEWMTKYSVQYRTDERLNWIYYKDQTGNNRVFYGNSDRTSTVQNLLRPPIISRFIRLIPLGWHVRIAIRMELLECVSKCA
Experiment: negative stain single particle electron microscopy; purified RS1 adsorbed to glow discharged carbon-coated copper grids, stained with 0.75% uranyl formate; 2D classification (SPIDER) and 3D reconstruction (EMAN2, RELION, D8 symmetry enforced)
Conditions: remark: other sources report otherwise

B1: RS1 (retinoschisin), human, recombinant, secreted from Sf21 insect cells, O15537 24-224 (natural protein)
chain: STEDEGEDPWYQKACKCDCQGGPNALWSAGATSLDCIPECPYHKPLGFESGEVTPDQITCSNPEQYVGWYSSWTANKARLNSQGFGCAWLSKFQDSSQWLQIDLKEIKVISGILTQGRCDIDEWMTKYSVQYRTDERLNWIYYKDQTGNNRVFYGNSDRTSTVQNLLRPPIISRFIRLIPLGWHVRIAIRMELLECVSKCA
Question: Which stoichiometry N does the source give for B1 here?
Answer: 8
